These results are taken from US20040005320A1 (ZymoGenetics, published 2004).

One test concerns the target T1, IL-20RA (human, UniProt Q9UHF4 30-553).
T1 construct: Expressed alone on stably transfected BHK cells; also called Zcytor7; IL-20RA subunit alone
T1 sequence: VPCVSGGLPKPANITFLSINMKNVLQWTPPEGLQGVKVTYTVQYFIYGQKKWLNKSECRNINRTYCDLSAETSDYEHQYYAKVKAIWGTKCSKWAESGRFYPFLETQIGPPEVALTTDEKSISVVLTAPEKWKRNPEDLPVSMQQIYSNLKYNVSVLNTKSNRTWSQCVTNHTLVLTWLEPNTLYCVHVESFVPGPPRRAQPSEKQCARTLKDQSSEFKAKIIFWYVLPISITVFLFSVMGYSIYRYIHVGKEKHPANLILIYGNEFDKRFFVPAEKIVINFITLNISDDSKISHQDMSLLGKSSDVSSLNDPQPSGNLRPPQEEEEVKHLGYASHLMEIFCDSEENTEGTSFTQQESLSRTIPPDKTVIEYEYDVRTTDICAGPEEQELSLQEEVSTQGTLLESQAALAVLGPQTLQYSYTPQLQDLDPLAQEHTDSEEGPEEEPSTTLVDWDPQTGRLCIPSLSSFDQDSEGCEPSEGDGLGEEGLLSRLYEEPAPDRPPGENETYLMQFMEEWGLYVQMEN
The experiment in a line: radiolabeled ligand binding on stably transfected BHK cells. On the procedure: (§1) The specificity and affinity of IL-20 for its receptor was determined using BHK cells stably transfected with IL-20RA, IL-20RB or both receptor subunits. […] Binding of ¹²⁵I-labeled IL-20 was eliminated in the presence of 100-fold excess of unlabeled IL-20 but not with 100-fold excess of the unrelated cytokine, IL-21.

For another test, the target named is T2, IL-20RB (human, UniProt Q6UXL0 30-311).
T2 construct: Expressed alone on stably transfected BHK cells; also called IL-20RB subunit alone
T2 sequence: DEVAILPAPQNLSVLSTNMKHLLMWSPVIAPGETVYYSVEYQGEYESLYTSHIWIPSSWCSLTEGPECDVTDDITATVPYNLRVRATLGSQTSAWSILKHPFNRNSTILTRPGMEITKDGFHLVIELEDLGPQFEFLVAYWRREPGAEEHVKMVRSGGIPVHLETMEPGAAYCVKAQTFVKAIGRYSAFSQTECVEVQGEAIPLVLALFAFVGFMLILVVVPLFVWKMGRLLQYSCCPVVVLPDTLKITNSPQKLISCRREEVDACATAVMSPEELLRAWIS
The description is as above. On the procedure:
as §1

Test [1] concerns the target T3, IL-20RA/IL-20RB heterodimeric receptor (human, UniProt Q9UHF4 30-553; Q6UXL0 30-311).
T3 construct: Both subunits were co-expressed on transfected COS, BHK or BaF3 cells, or were endogenous on human HaCaT keratinocytes; also called IL-20RB/IL-20RA heterodimer; IL-20 receptor
T3 sequence 1: T1 sequence
T3 sequence 2: T2 sequence
The experiment in a line: 125I-labeled IL-20 binding on BHK cells expressing IL-20RA and IL-20RB. On the procedure:
as §1

The Kd is the constant that tells how readily two partners part at equilibrium.

B1: IL-20 (ligand, UniProt Q9NYY1 25-176, looked up)
chain: LKTLNLGSCVIATNLQEIRNGFSEIRGSVQAKDGNIDIRILRRTESLQDTKPANRCCLLRHLLRLYLDRVFKNYQTPDHYTLRKISSLANSFLTIKKDLRLCHAHMTCHCGEEAMKKYSQILSHFEKLEPQAAVVKALGELDILLQWMEETE
notes: also called biotin-labeled IL-20 protein; biotinylated IL-20
For the molecule B1, the binding result with IL-20RA and with IL-20RB was “no binding” throughout. The same molecule yielded a Kd in test [1] of roughly 1.5 nM.
